Measured values: patent US6465618B1, “Mitogen activated protein kinase (MAPK) kinase” (Asahi Kasei Kabushikiki Kaisha, priority 1997, dated 2002)

Molecular target: T1, JNK1 (Homo sapiens, UniProt P45983)
T1 construct: GST (N); made in house; host or cells: E. coli (GST-MKK7: E. coli DH5α co-transformed with a MEKK1 vector)
Test: Activity of activated MKK7 on JNK1, dot hybridization with anti-activated JNK antibody
Format: biochemical
Details: 0.1 μM MKK7, 0.2 μM JNK1, 0.1 mM ATP, 30° C. 2 hours
Protocol: In order to screen an inhibitor of MKK7, a completely activated MKK7 was prepared as follows. Illustratively stated, as an activation factor for MKK7, MEKK1 which is suspected to exist in the upstream of MKK7 and activate MKK7, was used. A commercially available MEKK1 gene (manufactured and sold by Stratagene Cloning Systems, USA) was inserted into an E. coli expression vector in which the origin of replication (ori) is p15A, to thereby prepare recombinant MEKK1 vector. The whole DNA of human MKK7 was inserted into vector pGEX-4T1 (manufactured and sold by Pharmacia Biotech AB, Sweden), to thereby prepare recombinant GST-MKK7 vector. Two recombinant expression vectors prepared above were co-transformed into E. coli DH5α to thereby obtain an activated GST-MKK7, and the activated GST-MKK7 was purified from E. coli using Glutathione-Sepharose 4B column (manufactured and sold by Pharmacia Biotech AB, Sweden).
A gene encoding human JNK1 was inserted into vector pGEX-4T1, thereby preparing recombinant GST-JNK1 vector, and the prepared recombinant vector was transformed into and expressed in E. coli. GST-JNK1 was purified from the transformants using Glutathione-Sepharose 4B column (manufactured and sold by Pharmacia Biotech AB, Sweden). […]
Using the activated MKK7 and JNK1 obtained above, the activity of MKK7 was determined in the following manner. […]

T1 sequence (P45983 whole entry): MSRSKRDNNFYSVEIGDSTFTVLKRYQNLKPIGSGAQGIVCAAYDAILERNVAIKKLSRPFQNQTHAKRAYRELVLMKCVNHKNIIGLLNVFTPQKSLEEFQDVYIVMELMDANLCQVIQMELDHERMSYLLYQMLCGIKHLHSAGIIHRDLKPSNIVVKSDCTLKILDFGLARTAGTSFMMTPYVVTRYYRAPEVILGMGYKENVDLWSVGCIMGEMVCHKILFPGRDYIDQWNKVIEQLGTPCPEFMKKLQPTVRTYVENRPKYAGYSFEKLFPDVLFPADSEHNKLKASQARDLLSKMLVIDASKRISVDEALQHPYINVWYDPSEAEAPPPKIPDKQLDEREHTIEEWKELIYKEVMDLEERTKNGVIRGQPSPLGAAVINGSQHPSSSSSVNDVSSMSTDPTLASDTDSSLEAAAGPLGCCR

B1: activated MKK7: human MKK7 (SEQ ID NO: 2) as GST fusion, activated by co-expression with MEKK1 in E. coli (protein)
chain: AASSLEQKLSRLEAKLKQENREARRRIDLNLDISPQRPRPIIVITLSPAPAPSQRAALQLPLANDGGSRSPSSESSPQHPTPPARPRHMLGLPSTLFTPRSMESIEIDQKLQEIMKQTGYLTIGGQRYQAEINDLENLGEMGSGTCGQVWKMRFRKTGHVIAVKQMRRSGNKEENKRILMDLDVVLKSHDCPYIVQCFGTFITNTDVFIAMELMGTCAEKLKKRMQGPIPERILGKMTVAIVKALYYLKEKHGVIHRDVKPSNILLDERGQIKLCDFGISGRLVDSKAKTRSAGCAAYMAPERIDPPDPTKPDYDIRADVWSLGISLVELATGQFPYKNCKTDFEVLTKVLQEEPPLLPGHMGFSGDFQSFVKDCLTKDHRKRPKYNKLLEHSFIKRYETLEVDVASWFKDVMAKTESPRTSGVLSQPHLPFFR
modifications: left off: a dimerising Fc or GST
For B1, the “activity of MKK7 (presence of activated JNK1)” value was “confirmed”.
